Among the data in the supplement of paper PMC10126150 are switch fluorescence ratio values, retold here.

± gives the standard deviation of the averaged measurements.
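Also: ATP exposure 15 min at 22 °C before imaging.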

The test system of the data set is ATP. In words: switch fluorescence ratio, 500 uM ATP over buffer (Cy3 cluster intensity, sum of 5 cycles each) (fold (ratio)); higher = stronger signal-on switching upon ATP binding; sequences stand for … in TCGTCGGCAGCGTCAGATGTGTATAAGAGACAGTTTTTTTTTTTTTTTTTTTTTTTTT…TC. Conditions: aptamer strand: ATP DNA aptamer (quencher-CACCTGGGGGAGTATTGCGGAGGAAGG + anchor), 100 nM annealed; ATP concentration: 500 uM. The essentials: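 Cy3-labelled switching-strand clusters on a modified Illumina MiSeq flow-cell were annealed to 100 nM quencher-labelled ATP aptamer, imaged in selection buffer, then imaged after 15 min with 500 uM ATP at 22 °C. Five buffer/ATP cycles ran, with NaOH stripping and re-annealing between them. The fluorescence ratio is summed target-cycle over summed buffer-cycle Cy3 intensity per cluster, averaged per switch-domain sequence. Clusters outside 100-1000 RFU were excluded.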
Turning to AACCCATGCT, the switch fluorescence ratio came out at 1.05 ± 0.064.

AAGGTTGCGC: the switch fluorescence ratio was 0.986 ± 0.026.

TTCAAGGAGG: the switch fluorescence ratio was determined as 0.978 ± 0.016.

Consider GCAGGGGAGG, for which the switch fluorescence ratio worked out at 1 ± 0.036.

Regarding TTAAAAAGAT, the switch fluorescence ratio came out at 1.04 ± 0.051.

As to TCCATTGTGT, the switch fluorescence ratio stood at 0.992 ± 0.029.

With GGAGTCAGAA, the switch fluorescence ratio turned out to be 0.995 ± 0.014.

On to GTTTAAGTTC, for which the switch fluorescence ratio was found to be 0.988 ± 0.017.

On to GACTTAGCTT, for which the switch fluorescence ratio stood at 1.046 ± 0.0055.

Turning to TTAATATCCT, the switch fluorescence ratio amounted to 1.06 ± 0.026.

With CTCTTGGGAA, the switch fluorescence ratio came to 0.992 ± 0.014.

As to GTGAAACGGT, the switch fluorescence ratio turned out to be 1.03 ± 0.043.

On to GACTAGAGGG, for which the switch fluorescence ratio is 0.99 ± 0.034.

Regarding TACTAATGTT, the switch fluorescence ratio stood at 1.03 ± 0.044.

As to CAGTGATAAA, the switch fluorescence ratio was found to be 1.008 ± 0.0066.

With TACGCCGGAA, the switch fluorescence ratio amounted to 1.33 ± 0.37.

Turning to AGGCCAGGGT, the switch fluorescence ratio stood at 1.04 ± 0.021.

Take TGCTCTTTCA: the switch fluorescence ratio is 1 ± 0.025.

In the case of GAATGCTGGT, the switch fluorescence ratio is 0.966 ± 0.023.

As to TTCATTATGG, the switch fluorescence ratio turned out to be 1.004 ± 0.0049.

For CGGGCGCGGA, the switch fluorescence ratio came to 1.01 ± 0.048.

With AATCGCGGGC, the switch fluorescence ratio came to 1.09 ± 0.024.

Consider GTGTGCTAGT, for which the switch fluorescence ratio was determined as 0.975 ± 0.02.

As to TAACCTCGCG, the switch fluorescence ratio worked out at 1.04 ± 0.02.

With CGATAATCGT, the switch fluorescence ratio was determined as 1.002 ± 0.0098.

Consider GTGTAAAGTG, for which the switch fluorescence ratio stood at 0.949 ± 0.047.

Take GGGTTTTAAG: the switch fluorescence ratio amounted to 1 ± 0.021.

As to GATGATATGG, the switch fluorescence ratio came out at 0.9852 ± 0.0039.

In the case of AGTTAGGAAA, the switch fluorescence ratio is 1.02 ± 0.032.

Regarding TGGAGGAAGA, the switch fluorescence ratio was 1.04 ± 0.055.

As for TGTTATTGGC, the switch fluorescence ratio is 1.08 ± 0.084.

As to TGCAGGGGTC, the switch fluorescence ratio worked out at 1.02 ± 0.025.

For ATATTTTAGC, the switch fluorescence ratio turned out to be 1.03 ± 0.074.

With TCTGGTTTGG, the switch fluorescence ratio was 1.03 ± 0.049.

With TTGGGGACAT, the switch fluorescence ratio was found to be 0.98 ± 0.043.

Consider TGTTTTTGTA, for which the switch fluorescence ratio is 1.07 ± 0.13.

For the sequence GATGTTGTGA, the switch fluorescence ratio turned out to be 0.9999 ± 0.0076.

GCCTGGTGTC: the switch fluorescence ratio was determined as 1.27 ± 0.055.

In the case of GAAATATGTT, the switch fluorescence ratio is 0.999 ± 0.014.

Take TAGAATTACT: the switch fluorescence ratio is 1.05 ± 0.056.

Turning to ACATGGGGGG, the switch fluorescence ratio stood at 0.993 ± 0.038.

Take ATATTTTACG: the switch fluorescence ratio came out at 1.02 ± 0.06.

Take AGGAAAAATA: the switch fluorescence ratio stood at 0.988 ± 0.053.

Turning to ACCGTTGTTC, the switch fluorescence ratio was 1.04 ± 0.02.

On to ATTTGAAGAG, for which the switch fluorescence ratio was found to be 1.01 ± 0.014.

Regarding ATAATATGAG, the switch fluorescence ratio was determined as 0.993 ± 0.056.

As to GCTGGGGGCG, the switch fluorescence ratio worked out at 0.987 ± 0.025.

Take AAAAGCTCCG: the switch fluorescence ratio is 1.05 ± 0.033.

Regarding TTCGAGATCT, the switch fluorescence ratio was determined as 1.16 ± 0.11.

Turning to CAGGATGTAT, the switch fluorescence ratio came to 0.9852 ± 0.0029.

For the sequence AGAAGAGTTT, the switch fluorescence ratio was 0.95 ± 0.018.

With TAATACGGCG, the switch fluorescence ratio is 1.009 ± 0.01.

Turning to CGGGGGTGTG, the switch fluorescence ratio stood at 0.993 ± 0.035.

Take TTTAATTTAT: the switch fluorescence ratio turned out to be 1.09 ± 0.12.

Take ATTAGTCTAT: the switch fluorescence ratio worked out at 0.988 ± 0.036.

With TGTATGATGG, the switch fluorescence ratio was found to be 1.02 ± 0.031.

On to TGGGACCCAT, for which the switch fluorescence ratio was determined as 1.02 ± 0.055.

Take ATTTATCTTT: the switch fluorescence ratio was determined as 1 ± 0.032.

For GCTGTATTAA, the switch fluorescence ratio was 0.997 ± 0.038.

Regarding ATTGGGCGAG, the switch fluorescence ratio is 0.993 ± 0.013.

Regarding ATTTTTTCGA, the switch fluorescence ratio worked out at 0.981 ± 0.014.

For the sequence GGGAGGGACT, the switch fluorescence ratio was found to be 1.03 ± 0.051.

As for GGAATGAGTA, the switch fluorescence ratio amounted to 0.997 ± 0.016.

CGATAGGTAC: the switch fluorescence ratio was 1.22 ± 0.027.

On to GAATCGTAGC, for which the switch fluorescence ratio was 1 ± 0.022.

Take TTTTTAAATA: the switch fluorescence ratio was 0.986 ± 0.023.

With TGGGAAATAC, the switch fluorescence ratio worked out at 2.11 ± 0.12.

Turning to GGGGCGGAGT, the switch fluorescence ratio came out at 0.989 ± 0.055.

On to TGATTTAGGC, for which the switch fluorescence ratio is 0.9803 ± 0.009.

Turning to TATTTGTATG, the switch fluorescence ratio was found to be 0.9919 ± 0.003.

On to TTCCATTTGT, for which the switch fluorescence ratio worked out at 1.031 ± 0.0019.

Regarding TCTTGGGGGT, the switch fluorescence ratio is 1.03 ± 0.049.

For CTAAAGGGGA, the switch fluorescence ratio was found to be 1.08 ± 0.12.

With AGAGAGTTTG, the switch fluorescence ratio turned out to be 1.01 ± 0.02.

For the sequence ACGGGCGACG, the switch fluorescence ratio is 1.02 ± 0.025.

For the sequence CGGGTGTAAG, the switch fluorescence ratio is 1.01 ± 0.033.

Turning to GGCCACGCTC, the switch fluorescence ratio amounted to 1.04 ± 0.043.

Regarding TTGGGAGTGT, the switch fluorescence ratio amounted to 0.994 ± 0.031.
